Biological target: T1, ENaC (Homo sapiens, UniProt P37088+P51168+P51170)
T1 construct: measured the transepithelial voltage under thin film conditions in human bronchial epithelial cultures; endogenous in cells; host or cells: primary human bronchial epithelial cultures (normal or CF donors)
T1 sequence (P37088 1-669): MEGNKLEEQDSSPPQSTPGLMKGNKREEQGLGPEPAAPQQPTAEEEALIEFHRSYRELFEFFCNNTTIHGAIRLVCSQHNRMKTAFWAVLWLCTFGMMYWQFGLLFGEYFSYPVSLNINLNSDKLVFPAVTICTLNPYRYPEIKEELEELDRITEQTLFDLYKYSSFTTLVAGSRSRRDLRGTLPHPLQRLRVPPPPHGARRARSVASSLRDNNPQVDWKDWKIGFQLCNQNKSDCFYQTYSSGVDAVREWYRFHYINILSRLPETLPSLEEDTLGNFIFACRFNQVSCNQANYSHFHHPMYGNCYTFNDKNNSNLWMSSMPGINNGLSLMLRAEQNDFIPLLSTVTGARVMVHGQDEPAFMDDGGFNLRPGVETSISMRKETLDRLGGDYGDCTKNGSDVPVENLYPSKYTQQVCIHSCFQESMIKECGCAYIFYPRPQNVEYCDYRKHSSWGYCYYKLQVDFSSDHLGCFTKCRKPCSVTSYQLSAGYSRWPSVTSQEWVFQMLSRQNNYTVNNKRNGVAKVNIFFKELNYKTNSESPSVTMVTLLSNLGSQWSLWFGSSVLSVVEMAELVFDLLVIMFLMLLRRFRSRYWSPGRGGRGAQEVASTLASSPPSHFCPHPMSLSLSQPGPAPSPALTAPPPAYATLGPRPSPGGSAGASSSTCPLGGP
T1 sequence (P51168 1-640): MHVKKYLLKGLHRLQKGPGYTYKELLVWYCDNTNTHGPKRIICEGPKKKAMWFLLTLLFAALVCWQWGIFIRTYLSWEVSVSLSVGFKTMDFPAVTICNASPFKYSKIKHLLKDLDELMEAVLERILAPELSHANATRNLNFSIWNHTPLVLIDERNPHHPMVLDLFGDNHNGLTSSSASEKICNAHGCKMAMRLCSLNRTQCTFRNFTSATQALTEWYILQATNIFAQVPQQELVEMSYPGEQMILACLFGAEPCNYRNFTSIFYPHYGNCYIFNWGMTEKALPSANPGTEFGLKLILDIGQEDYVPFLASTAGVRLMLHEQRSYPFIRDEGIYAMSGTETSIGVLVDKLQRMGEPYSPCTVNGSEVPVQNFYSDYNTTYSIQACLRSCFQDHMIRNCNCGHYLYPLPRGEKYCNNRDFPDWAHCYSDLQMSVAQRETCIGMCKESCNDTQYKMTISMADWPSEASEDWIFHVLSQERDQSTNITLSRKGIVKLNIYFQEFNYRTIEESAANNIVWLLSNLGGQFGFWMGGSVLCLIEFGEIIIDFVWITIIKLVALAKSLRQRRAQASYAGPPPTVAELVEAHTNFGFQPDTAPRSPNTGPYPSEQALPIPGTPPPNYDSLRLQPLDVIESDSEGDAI
T1 sequence (P51170 1-649): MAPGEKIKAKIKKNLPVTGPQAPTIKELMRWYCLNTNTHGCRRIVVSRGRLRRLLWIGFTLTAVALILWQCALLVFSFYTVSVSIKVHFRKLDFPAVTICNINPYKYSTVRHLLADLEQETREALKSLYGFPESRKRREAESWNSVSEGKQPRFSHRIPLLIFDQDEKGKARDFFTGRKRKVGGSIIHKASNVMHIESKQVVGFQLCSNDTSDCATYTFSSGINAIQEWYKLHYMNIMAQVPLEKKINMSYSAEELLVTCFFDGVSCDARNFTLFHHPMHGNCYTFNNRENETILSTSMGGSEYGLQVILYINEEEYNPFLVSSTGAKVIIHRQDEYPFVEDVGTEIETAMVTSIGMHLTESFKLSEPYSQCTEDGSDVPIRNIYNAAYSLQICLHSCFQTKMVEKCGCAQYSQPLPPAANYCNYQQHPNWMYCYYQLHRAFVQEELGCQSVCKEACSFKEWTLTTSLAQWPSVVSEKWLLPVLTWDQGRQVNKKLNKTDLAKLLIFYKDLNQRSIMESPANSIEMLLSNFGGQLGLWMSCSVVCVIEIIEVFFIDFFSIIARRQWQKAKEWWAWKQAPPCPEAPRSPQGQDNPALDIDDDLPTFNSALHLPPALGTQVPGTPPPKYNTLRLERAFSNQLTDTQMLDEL
Assay: Transepithelial voltage (PD), thin film conditions, human bronchial epithelial cultures
Type: cell-based
Source text: Tissue procurement and cell culture: Cells were harvested by enzymatic digestion from human bronchial tissue as previously described under a protocol approved by the UNC School of Medicine IRB (Tarran et al., J. Gen. Physiol. 127:591 (2006)). Human excess donor lungs and excised recipient lungs were obtained at the time of lung transplantation from portions of main stem or […] bronchi and cells were harvested by enzymatic digestion. All preparations were maintained at an air-liquid interface in a modified bronchial epithelial medium and used 2-5 weeks after seeding on 12 mm T-Clear inserts (Corning Costar) coated with human placental type VI collagen (Sigma). Phosphate buffered saline (PBS) was used for washing human bronchial epithelial culture mucosal surfaces. HBECs were maintained at an air-liquid interface in a modified bronchial epithelial growth medium (BEGM) with 5% CO2 at 37° C. and used 2-5 weeks after seeding on 12-mm T-clear inserts (Corning-Costar, Corning, N.Y., USA) (Randell, Methods Mol. Biol. 742:285 (2011)).
A single-barreled potential difference-sensing electrode was placed in the airway surface liquid by micromanipulator and used in conjunction with a macroelectrode in the serosal solution to measure transepithelial voltage using a voltmeter (World Precision Instruments). […] Transepithelial resistance was routinely measured using the EVOM system (WPI) as previously described (Tarran et al., J. Gen. Physiol. 127:591 (2006)).

B1: SPLUNC1: human SPLUNC1 (SEQ ID NO:1), 256 amino acid secreted PLUNC family protein; rSPLUNC1 is the purified V5/6His-tagged recombinant form (protein, listed as Homo sapiens)
chain: MFQTGGLIVFYGLLAQTMAQFGGLPVPLDQTLPLNVNPALPLSPTGLAGSLTNALSNGLLSGGLLGILENLPLLDILKPGGGTSGGLLGGLLGKVTSVIPGLNNIIDIKVTDPQLLELGLVQSPDGHRLYVTIPLGIKLQVNTPLVGASLLRLAVKLDITAEILAVRDKQERIHLVLGDCTHSPGSLQISLLDGLGPLPIQGLLDSLTGILNKVLPELVQGNVCPLVNEVLRGLDITLVHDIVNMLIHGLQFVIKV
modifications: V5/6His tag in recombinant form
notes: rSPLUNC1 is the purified V5/6His-tagged recombinant form
transepithelial voltage (50 ng/ml rSPLUNC1 in 20 μl Ringer, PBS-washed cultures): significantly reduced the transepithelial voltage
regulation of transepithelial voltage in cultures lacking SPLUNC1 (SPLUNC1 shRNA knockdown, 50 ng/ml rSPLUNC1): restored
transepithelial voltage, cultures not pre-washed (airway surface liquid left to accumulate for 24 h): without further effect
onset of inhibition (human bronchial epithelial cultures, FIG. 2C, 2D): 30 to 60 min
transepithelial voltage, addition to amiloride-treated cultures (rSPLUNC1 added to the same amiloride-treated cultures, n=12): without further effect
rate of inhibition of the transepithelial voltage (rSPLUNC1 vs aprotinin addition, effects not additive): identical rates
